Target: CD19 extracellular domain (Homo sapiens, UniProt P15391 20-291)
Test: flow cytometry on protein-coated beads; PBS, 37 C; PBS, 37 C, 30 min, three PBS washes; bead flow cytometry, random ssDNA pool as background; pH not stated
Conditions: protein: commercial; label: FITC (flow cytometry); Cy3 (confocal); FITC at 5' end in selection primer

Chain of CD19 extracellular domain (P15391 20-291): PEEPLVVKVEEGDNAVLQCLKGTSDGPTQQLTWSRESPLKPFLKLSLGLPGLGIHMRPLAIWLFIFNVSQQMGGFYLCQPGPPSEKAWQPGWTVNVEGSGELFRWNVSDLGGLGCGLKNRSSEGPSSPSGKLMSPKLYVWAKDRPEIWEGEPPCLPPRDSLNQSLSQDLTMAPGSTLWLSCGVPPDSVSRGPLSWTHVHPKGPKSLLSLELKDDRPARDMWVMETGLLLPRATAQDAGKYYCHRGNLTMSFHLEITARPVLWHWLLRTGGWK

B1: LC1 (ssDNA)
DNA: TGCGTGTGTAGTGTGTCTGTTCTCCTTTTTTTGGTTGCTGCTCTTAGGGATTTGGGCGG
Q: B1 was tested. Which Kd did it give?
A: 85.4 nM

— paper PMC6003574, “Selection of a novel CD19 aptamer for targeted delivery of doxorubicin to lymphoma cells”
